The assay has as its target T1, full length SARS-CoV-2 spike protein (SARS-CoV-2, UniProt P0DTC2).
T1 construct: source: bought: ACROBiosystems
The assay can be described thus: SPR. The settings on record: both partners purified.

The text below walks through data of PMC11063343 (Frontiers in Cellular and Infection Microbiology, 2024).

For orientation: Kd means the constant that tells how readily two partners part at equilibrium.

No end group written: not given here. *: point of attachment. Biotin = O=C1N[C@H]2[C@H](CS[C@H]2CCCCC(=O)*)N1

Take Biotin-MYCVFNRNEDACRYG (cysteine pairing not given here) [cellugyrin Inner loop 1A peptide]: the Kd was determined as 4.53 mM.
